Results on 6 molecules are retold here after patent publication US20180244746A1 (INSERM INSTITUT NATIONAL DE LA SANT ET DE LA RECHERCHE M …, published 2018).

The target in experiment [1] is T1, zinc transporter (ZnT)8 peptide on HLA-A*02:01 (human).
T1 peptide: AVAANIVLTV
Put plainly: multimer staining.

The target of experiment [2] is T2, zinc transporter (ZnT)8 peptide on HLA-A*02:01 (human).
T2 peptide: VAANIVLTV
Description: multimer staining.

In experiment [3] the target is T3, recombinant HLA-A2 molecules (human).
T3 construct: also called HLA-A*02:01
Description: stability measurement of recombinant HLA-A2 molecules complexed with the peptide (method not described; data not shown).

Experiment [4] deals with T3, recombinant HLA-A2 molecules. Description: affinity measurement of recombinant HLA-A2 molecules complexed with the peptide (method not described; data not shown); ZnT8186-194 (…), the shorter epitope.
The target is the same in experiment [5]. Description: affinity measurement of recombinant HLA-A2 molecules complexed with the peptide (method not described; data not shown); ZnT8185-194 (…), the longer variant.

B1: H328C 9C8 (TCR)
alpha TRAV25*01 TRAJ26*01 CDR3: CAGILSYGQNFVF
beta TRBV25-1*01 TRBJ1-2*01 CDR3: CASSEVGQGFNGYTF
In the case of B1, the binding result in experiment [1] and in experiment [2] was “recognises” throughout.

B2: D010R 1E2 (TCR)
alpha TRAV35*02 TRAJ36*01 CDR3: CAGTRNNLFF
beta TRBV19*01 TRBJ2-7*01 CDR3: CASGGSSYEQYF
For B2, the binding result in experiment [1] and in experiment [2] was “recognises” in each case.

B3: ZnT8186-194 peptide (VAANIVLTV) (peptide)
peptide: VAANIVLTV
notes: Synthesized by ChinaPeptides at >85% purity
B3: in experiment [3], the “t1/2 (stability of the peptide/HLA-A2 complex)” value worked out at 1.8 h. The Kd in experiment [4] stood at 15 nM.

B4: H328C 9B3 (TCR)
alpha TRAV21*01 TRAJ57*01 CDR3: CAVVRTQGGSEKLVF
beta TRBV9*01 TRBJ1-6*02 CDR3: CASSPWTGIPYNSPLHF
With B4, the binding result in experiment [1] and in experiment [2] was “recognises” in each case.

B5: D010R 12B4 (TCR)
alpha TRAV1-2*01 TRAJ26*01 CDR3: CAVDNYGQNFVF
beta TRBV19*01 TRBJ2-3*01 CDR3: CASTGLAGTQYF
For the molecule B5, in experiment [2], the binding result is listed as “recognises”.

B6: ZnT8185-194 peptide (AVAANIVLTV) (peptide)
peptide: AVAANIVLTV
notes: as for B3
As to B6, in experiment [3], the “t1/2 (stability of the peptide/HLA-A2 complex)” value amounted to 2.3 h. In addition, the equilibrium dissociation constant (Kd) in experiment [5] is 207 nM.
